Data taken from US20220282217A1, “COMPOSITIONS AND METHODS FOR PREPARING T CELL COMPOSITIONS AND USES THEREOF” (priority 2019, published 2022).

How the values were obtained:
Conditions in all cases: remark: other sources report otherwise
[1] = target: HLA class I molecule A02.01; experiment: pMHC-I dissociation half-life, 125I-b2m
[2] = target: HLA class I molecule B08.01; experiment: pMHC-I dissociation half-life, 125I-b2m
HLA-A02.01 (human) [3] = experiment: pMHC-I dissociation half-life, 125I-b2m
HLA-A02.01 (human) [4] = experiment: competition with radiolabeled reference peptide, purified MHC I
HLA-A02.01 (human) [5] = experiment: pMHC-I complex dissociation at 37 C, 125I-b2m, half-life
HLA-A24.02 (human) [6] = experiment: as above
HLA-A02.01 (human) [7] = experiment: competition vs radiolabeled reference peptide on purified MHC I, gel filtration
[8] = target: HLA class I molecule A02.01; experiment: competition with radiolabeled reference peptide on purified MHC I
HLA-B07.02 (human) [9] = experiment: pMHC-I complex dissociation at 37 C, 125I-b2m, half-life
HLA-B07.02 (human) [10] = experiment: competition vs radiolabeled reference peptide on purified MHC I, gel filtration
[11] = target: T1, HLA-A02.01 class I MHC molecule (prepared complex) (human); experiment: dissociation of peptide-MHC-I complex at 37 C, 125I-labelled b2m, scintillation
[12] = target: T1, HLA-A02.01 class I MHC molecule …; experiment: displacement of radiolabeled reference peptide from class I MHC, gel filtration; 'Affinity (nM)'
HLA-A24.02 (human) [13] = experiment: pMHC-I dissociation half-life, 125I-b2m
HLA-A24.02 (human) [14] = experiment: competition with radiolabeled reference peptide, purified MHC I
HLA-A24.02 (human) [15] = experiment: competition vs radiolabeled reference peptide on purified MHC I, gel filtration

FLQEQYHEA was tested, and the Stability (T1/2 (h)) [1] was 9.5 h and the Stability (T1/2 (h)) [2] was 0 h.

GMNWRPILTI showed a Stability (T1/2 (h)) (HLA-A02.01 (human) [3]) of 0.5 h and an IC50 (HLA-A02.01 (human) [4]) of 282 nM.

Binder QLIMQLMPF has a Stability (T1/2 (h)) (HLA-A02.01 (human) [5]) of 0.3 h, a Stability (T1/2 (h)) (HLA-A24.02 (human) [6]) of 0.4 h and an IC50 (HLA-A02.01 (human) [7]) of 227 nM.

With FQNGKMALSA the Stability (T1/2 (h)) [1] was 0 h, the Stability (T1/2 (h)) [2] was 0 h and the IC50 [8] was 6160 nM.

Binder SLLNYLREM has a Stability (T1/2 (h)) (HLA-A02.01 (human) [5]) of 3 h, a Stability (T1/2 (h)) (HLA-B07.02 (human) [9]) of 0 h and an IC50 (HLA-A02.01 (human) [7]) of 87 nM. The IC50 (HLA-B07.02 (human) [10]) was 1110 nM.

With QLIMQLMPFG [EGFR_T790M peptide …, listing 1 of 2 here] the Stability (half-life (hr.)) [11] was 0 min and the IC50 [12] was 5210 nM.

For WMTETLFDI, the Stability (T1/2 (h)) (HLA-A02.01 (human) [3]) was 4 h, the Stability (T1/2 (h)) (HLA-A24.02 (human) [13]) was 0 h and the IC50 (HLA-A02.01 (human) [4]) was 14 nM. For the same binder, the IC50 (HLA-A24.02 (human) [14]) was 713 nM.

TQLARFFPI showed a Stability (T1/2 (h)) (HLA-A02.01 (human) [3]) of 0 h, a Stability (T1/2 (h)) (HLA-A24.02 (human) [13]) of 0 h and an IC50 (HLA-A02.01 (human) [4]) of 19 nM. The IC50 (HLA-A24.02 (human) [14]) was 52 nM.

In the case of MQLMPFGCLL, the Stability (T1/2 (h)) (HLA-A02.01 (human) [5]) is reported as 0.4 h, the Stability (T1/2 (h)) (HLA-A24.02 (human) [6]) is reported as 0 h and the IC50 (HLA-A02.01 (human) [7]) is reported as 20 nM. The IC50 (HLA-A24.02 (human) [15]) was 23600 nM.

Binder YMANGSLLN has a Stability (T1/2 (h)) (HLA-A02.01 (human) [5]) of 0 h and an IC50 (HLA-A02.01 (human) [7]) of 4440 nM.

With ALQPLQPHA the IC50 [8] was 604 nM.

With WLHKRGKYI the Stability (T1/2 (h)) (HLA-A02.01 (human) [5]) was 1.2 h, the Stability (T1/2 (h)) (HLA-B07.02 (human) [9]) was 0 h and the IC50 (HLA-A02.01 (human) [7]) was 1250 nM. For the same binder, the IC50 (HLA-B07.02 (human) [10]) was 2650 nM.

For LTINKEEAL, the Stability (T1/2 (h)) (HLA-A02.01 (human) [5]) was 0 h and the IC50 (HLA-A02.01 (human) [7]) was 4410 nM.

MALNSEALSV gave a Stability (T1/2 (h)) (HLA-A02.01 (human) [3]) of 0.7 h and an IC50 (HLA-A02.01 (human) [4]) of 129 nM.

Binder IMQLMPFGC […, listing 1 of 2 here] has a Stability (T1/2 (h)) (HLA-A02.01 (human) [5]) of 0.4 h and an IC50 (HLA-A02.01 (human) [7]) of 1610 nM.

QLIMQLMPFG […, listing 2 of 2 here] gave a Stability (T1/2 (h)) (HLA-A02.01 (human) [5]) of 0 h and an IC50 (HLA-A02.01 (human) [7]) of 5930 nM.

For YTLDVLERC, the Stability (T1/2 (h)) (HLA-A02.01 (human) [5]) was 6.6 h.

Work on MANGSLLNYL yielded a Stability (T1/2 (h)) (HLA-A02.01 (human) [5]) of 0 h, a Stability (T1/2 (h)) (HLA-B07.02 (human) [9]) of 0 h and an IC50 (HLA-A02.01 (human) [7]) of 1080 nM. For the same binder, the IC50 (HLA-B07.02 (human) [10]) was 17700 nM.

Binder FLPSTLKSL has a Stability (T1/2 (h)) (HLA-A24.02 (human) [6]) of 1 h and an IC50 (HLA-A24.02 (human) [15]) of 995 nM.

NQRPILTII was tested, and the Stability (T1/2 (h)) (HLA-A02.01 (human) [3]) was 0 h and the IC50 (HLA-A02.01 (human) [4]) was 9610 nM.

For IMQLMPFGC [EGFR_T790M peptide …, listing 2 of 2 here], the Stability (half-life (hr.)) [11] was 22.2 min and the IC50 [12] was 1210 nM.

FLLALWECSL was tested, and the Stability (T1/2 (h)) [1] was 10.8 h and the Stability (T1/2 (h)) [2] was 0 h.

Binder IMQLMPFGCL has a Stability (T1/2 (h)) (HLA-A02.01 (human) [5]) of 0.5 h, a Stability (T1/2 (h)) (HLA-A24.02 (human) [6]) of 0 h and an IC50 (HLA-A02.01 (human) [7]) of 837 nM. It also gave an IC50 (HLA-A24.02 (human) [15]) of 18100 nM.

For MQLMPFGCL, the Stability (T1/2 (h)) (HLA-A02.01 (human) [5]) was 0.4 h, the Stability (T1/2 (h)) (HLA-B07.02 (human) [9]) was 0 h and the IC50 (HLA-B07.02 (human) [10]) was 2270 nM.

Binder LVVVGADGV has a Measured stability (HLA-A02.01 (human) [3]) of 0 h and a Measured Affinity (HLA-A02.01 (human) [4]) of 977 nM.

In the case of LVVVGACGV, the Measured stability (HLA-A02.01 (human) [3]) is reported as 0.6 h and the Measured Affinity (HLA-A02.01 (human) [4]) is reported as 667 nM.

Binder STVQLIMQL […, listing 1 of 2 here] has a Stability (T1/2 (h)) (HLA-A02.01 (human) [5]) of 0 h and an IC50 (HLA-A02.01 (human) [7]) of 8540 nM.

With LIMQLMPFG [EGFR_T790M peptide …, listing 1 of 2 here] the Stability (half-life (hr.)) [11] was 0 min and the IC50 [12] was 3340 nM.

LIMQLMPFG […, listing 2 of 2 here] gave a Stability (T1/2 (h)) (HLA-A02.01 (human) [5]) of 0 h and an IC50 (HLA-A02.01 (human) [7]) of 3510 nM.

Work on LQSLPRFILM yielded a Stability (T1/2 (h)) (HLA-A02.01 (human) [5]) of 0 h and an IC50 (HLA-A02.01 (human) [7]) of 413 nM.

With STVQLIMQL [EGFR_T790M peptide …, listing 2 of 2 here] the Stability (half-life (hr.)) [11] was 0 min and the IC50 [12] was 7260 nM.

PLYGLLLEML gave a Stability (T1/2 (h)) (HLA-A02.01 (human) [5]) of 0 h, a Stability (T1/2 (h)) (HLA-A24.02 (human) [6]) of 6.3 h and an IC50 (HLA-A02.01 (human) [7]) of 797 nM. The IC50 (HLA-A24.02 (human) [15]) was 444 nM.

CMGSMNRRPI was tested, and the Stability (T1/2 (h)) (HLA-A02.01 (human) [3]) was 0 h and the IC50 (HLA-A02.01 (human) [4]) was 1990 nM.

RVAKIADFGM was tested, and the Stability (T1/2 (h)) (HLA-A02.01 (human) [5]) was 0.5 h, the Stability (T1/2 (h)) (HLA-B07.02 (human) [9]) was 0.2 h and the IC50 (HLA-A02.01 (human) [7]) was 125 nM. For the same binder, the IC50 (HLA-B07.02 (human) [10]) was 9720 nM.

LVVVGAVGV was tested, and the Measured stability (HLA-A02.01 (human) [3]) was 0.6 h.

VQLIMQLMPF showed a Stability (T1/2 (h)) (HLA-A02.01 (human) [5]) of 0 h, a Stability (T1/2 (h)) (HLA-A24.02 (human) [6]) of 0 h and an IC50 (HLA-A02.01 (human) [7]) of 5490 nM. For the same binder, the IC50 (HLA-A24.02 (human) [15]) was 4560 nM.

Work on LIVSRTLLL yielded an IC50 [8] of 174 nM.

SVCFFFFSV gave a Stability (T1/2 (h)) (HLA-A02.01 (human) [5]) of 9.4 h and an IC50 (HLA-A02.01 (human) [7]) of 175 nM.

SMNRRPILTI gave a Stability (T1/2 (h)) (HLA-A02.01 (human) [3]) of 0.3 h, a Stability (T1/2 (h)) (HLA-A24.02 (human) [13]) of 0 h and an IC50 (HLA-A02.01 (human) [4]) of 1200 nM. The IC50 (HLA-A24.02 (human) [14]) was 16300 nM.

SLPRFILMEL gave a Stability (T1/2 (h)) (HLA-A02.01 (human) [5]) of 0.5 h, a Stability (T1/2 (h)) (HLA-A24.02 (human) [6]) of 0.2 h and a Stability (T1/2 (h)) (HLA-B07.02 (human) [9]) of 0.4 h. The IC50 (HLA-A02.01 (human) [7]) was 26 nM, the IC50 (HLA-A24.02 (human) [15]) was 2770 nM and the IC50 (HLA-B07.02 (human) [10]) was 583 nM.

For CMGGMNWRPI, the Stability (T1/2 (h)) (HLA-A02.01 (human) [3]) was 0.4 h, the Stability (T1/2 (h)) (HLA-A24.02 (human) [13]) was 0 h and the IC50 (HLA-A02.01 (human) [4]) was 346 nM. The IC50 (HLA-A24.02 (human) [14]) was 4450 nM.
